Measured values from US20080090770A1, “Modulation of Muc1 Mediated Signal Transduction” (priority 2003, published 2008).

How the values were obtained:
[1] = tested on: HCT116 cells transfected with MUC1ΔSANL; experiment: Visualization of viable cells after cisplatin in transfected HCT116 cells; type: cell-based, human; settings: 100 μM cisplatin, 24 and 48 hr
Method: Human HCT116 colon carcinoma cells (ATCC, Manassas, Va.) were cultured in Dulbecco's modified Eagle's medium/F12 with 10% heat-inactivated fetal bovine serum, 100 units/ml penicillin, […] streptomycin and 2 mM L-glutamine. HCT116 cells were transfected with pIRES-puro2, pIRESpuro2-MUC1 or pIRES-puro2-MUC1ΔSANL (MUC1 with the four carboxyl terminal amino acids […] deleted) as described (Li et al., 2001). Stable transfectants were selected in the presence of 0.4 mg/ml puromycin (Calbiochem-Novabiochem, San Diego, Calif.).
Cells were incubated with 100 μM cisplatin (CDDP; Sigma), for 24 and 48 hr.

[2] = tested on: HCT116/MUC1 cells; experiment: Apoptosis assay (sub-G1 DNA content) after siRNA transfection and CDDP treatment; type: cell-based, human; settings: CDDP 100 μM
Method: (§1) Cell culture and transfection: Human colon cancer HCT116 cells and human non-small lung cancer A549 were grown in Dulbecco's modified Eagle's medium (DMEM) and RPMI1640 medium, respectively, in a humidified 5% CO2 atmosphere at 37° C. Media were supplemented with 10% fetal bovine serum (FBS), 100 units/ml of penicillin and 100 μg/ml of streptomycin. HCT116 cells were transfected with pIRES-puro2 or pIRES-puro2-MUC1 as described (Li et al., 2001(a)) and stable transfectants were selected in the presence of 0.4 μg/ml puromycin (Caliochem-Novabiochem).
(§2) A nonspecific scrambled control siRNA (SCRsiRNA) was also synthesized (targeted sequence: 5′-[…]-3′) (Dharmacon, Inc.). Cells were plated, grown in antibiotic-free medium overnight, and then transiently transfected with siRNAs (0.2-20 nM) using Oligofectamine reagent (Invitrogen Life Technology, Inc.) and Opti-MEM 1 reduced serum medium (Invitrogen Life Technology, Inc.) according to the manufacturer's instructions.
(§3) Apoptosis assay: At 48 hr after siRNA transfection, cells were treated with 0, 10 or 100 μM cisplatin (CDDP, Sigma) for 24 hr to induce apoptosis. Apoptotic cells were quantified by analysis of sub-G1 DNA content. Cells were harvested, washed, with PBS, fixed with 75% ethanol, and incubated in PBS containing 200 μg/ml RNase A (Qiagen) for 15 min at 37° C. […] DNA content was analyzed by flow cytometry (EPICS XL-MCL, Coulter Corp.).

[3] = tested on: HCT116/vector cells; experiment: as above; type: cell-based, human; settings: CDDP 100 μM
Method: as §1, §2, §3

[4] = target: T1, HtrA2 (Homo sapiens, UniProt O43464); experiment: TransSignal PDZ Domain Array: binding of His-tagged MUC1/CD to immobilized PDZ domain, without or with 7-mer peptide
T1 construct: purchased Panomics Inc
T1 sequence (O43464 364-445 limits assumed): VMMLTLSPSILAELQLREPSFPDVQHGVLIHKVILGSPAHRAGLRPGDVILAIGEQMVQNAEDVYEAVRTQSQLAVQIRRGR
Method: (§4) The ability of the MUC1 cytoplasmic domain (CD) to interact with a panel of 28 human PDZ domain proteins was screened. A His-tagged MUC1/CD was produced to affect the screening. The CD of MUC1 was amplified by RT-PCR from cDNA derived from human breast cancer MCF7 cells. The MUC1/CD gene was cloned into a bacterial vector pEXP (Panomics Inc.) to generate a His-tagged fusion protein (pEXP/MUC1/CD). DH5α E. Coli cells were transformed with pEXP/MUC1/CD and incubated overnight in 1 ml of LB medium containing 100 μg/ml ampicillin (LB/AMP). Eighty μl of the overnight culture was transferred to a tube of 4 ml of LB/AMP and allowed to grow until an OD600 of approximately 0.5-0.8 was evident. IPTG was added to the culture at a final concentration of 0.5 mM to induce expression of the His-tagged MUC1/CD protein. After 4 hours, cells were harvested in 1× resuspension buffer (Panomics Inc.) and lysed by sonication. The lysate was centrifuged at 14000 rpm for 5 minutes at 4° C. The resulting supernatant (bacterial extract) was collected and stored at −80° C. until use.
(§5) The TransSignal PDZ Domain Array kit (Panomics Inc.) was used comprising membranes on which the following 28 human PDZ proteins had been immobilized: MINT-2 d1, Mint-3 d1, Mint-3 d2, Mint-1 d1, Mint1 d2, CSKP, Dlg d1, Dlg1 d3, Dlg2 d2, Dlg4 d3, DVL1, DVL3, DVLL, GIPC, HtrA2, LIMK2, MPP2, NEB1, OMP25, hCLIM1, PTPH1, ZO-2 d1, hPTP1E d1, hPTP1E d5, RGS12, RIL, ZO-1 d3 and ZO-2 d3.
(§6) Membranes were submerged in a small tray with 20 ml of x1 blocking buffer (Panomics Inc.), and shaken at room temperature for 1 hour. The blocking buffer was removed and membranes rinsed twice with x1 Wash Buffer (Panomics inc.) at room temperature. The bacterial extract was diluted to a final concentration of 0.1 mg/ml in 20 ml Resuspension Buffer (Panomics Inc.). The membrane was incubated with the dilute bacterial extract overnight at 4° C. with gentle shaking. After incubation, the membrane was washed three times with 40 ml 1× Wash Buffer at room temperature for 10 minutes each wash. The membrane was then incubated with 20 ml diluted Anti-Histidine HRP Conjugate (Panomics inc., 1:3000 dilution in 1× Wash Buffer) at room temperature for 1 hour. The membrane was then washed with 40 ml 1× Wash Buffer at room temperature for 10 minutes each wash. The membrane was then visualized using […] ECL (Amersham Biosciences) utilizing the Detection Buffers as supplied by Panomics.
(§7) His-tagged MUC1/CD (bacterial extract) was incubated in the absence or presence of a 20-fold molar excess of the 7-mer peptide AAASANL (SEQ ID NO: 133) with the appropriate membrane-immobilized PDZ domain, as described above in Example 4.

[5] = target: T2, Mint-1 d2 (Homo sapiens, UniProt Q02410); experiment: as above
T2 construct: Mint-1 d2 (XII protein, PDZ domain #2); purchased Panomics Inc
T2 sequence (Q02410 747-822 limits assumed): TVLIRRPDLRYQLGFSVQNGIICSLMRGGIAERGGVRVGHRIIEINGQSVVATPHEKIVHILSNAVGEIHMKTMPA
Method: as §4, §5, §6, §7

[6] = target: T3, PTPH1 (Homo sapiens, UniProt P26045); experiment: as above
T3 construct: purchased Panomics Inc
T3 sequence (P26045 510-582 limits assumed): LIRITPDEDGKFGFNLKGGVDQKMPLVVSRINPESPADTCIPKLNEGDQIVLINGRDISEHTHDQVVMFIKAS
Method: as §4, §5, §6, §7

[7] = target: T4, RIL (Homo sapiens, UniProt P50479); experiment: as above
T4 construct: purchased Panomics Inc
T4 sequence (P50479 1-84 limits assumed): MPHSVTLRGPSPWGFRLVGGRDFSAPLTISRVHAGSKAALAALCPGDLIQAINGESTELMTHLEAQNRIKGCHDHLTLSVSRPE
Method: as §4, §5, §6, §7

[8] = target: T5, Mint-2 d1 (Homo sapiens, UniProt Q99767); experiment: as above
T5 construct: Mint-2 d1(XIIL protein, PDZ domain #1); purchased Panomics Inc
T5 sequence (Q99767 568-654 limits assumed): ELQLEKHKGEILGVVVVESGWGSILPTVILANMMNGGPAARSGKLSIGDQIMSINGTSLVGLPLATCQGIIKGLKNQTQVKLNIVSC
Method: as §4, §5, §6, §7

[9] = target: T6, OMP25 (Homo sapiens, UniProt P57105); experiment: TransSignal PDZ Domain Array: binding of His-tagged MUC1/CD to immobilized PDZ domain; settings: bacterial extract 0.1 mg/ml, panel of 28 PDZ proteins
T6 construct: The TransSignal PDZ Domain Array kit (Panomics Inc.) was used; purchased Panomics Inc
T6 sequence (P57105 13-100 limits assumed): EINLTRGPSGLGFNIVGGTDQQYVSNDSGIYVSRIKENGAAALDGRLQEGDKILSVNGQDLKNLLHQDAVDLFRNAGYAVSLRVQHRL
Method: as §4, with “use. […]” for “use.”

[10] = bacterial extract 0.1 mg/ml, panel of 28 PDZ proteins

In the case of `[NH2][Pt]([NH2])([Cl])[Cl]` [CDDP, cisplatin], the “Sensitivity to CDDP-induced cell death relative to cells transfected with full length MUC1” value [1] is reported as “substantially increase in the sensitivity to CDDP-induced cell death”, the “Sensitivity of cells to apoptosis induced by CDDP” value [2] is reported as “relatively resistant to apoptosis” and the “Sensitivity of cells to apoptosis induced by CDDP” value [3] is reported as “sensitive to apoptosis”.
In the case of AAASANL [7-mer peptide], the “Inhibition of binding of his-tagged MUC1/CD to PDZ domain” value (“Inhibition” below) ([4]; 20-fold molar excess of 7-mer) is reported as “inhibited the binding”, the “Inhibition” value ([5]; 20-fold molar excess of 7-mer) is reported as “inhibited the binding” and the “Inhibition” value ([6]; 20-fold molar excess of 7-mer) is reported as “inhibited the binding”. The “Inhibition” value ([7]; 20-fold molar excess of 7-mer) was “inhibited the binding” and the “Inhibition” value ([8]; 20-fold molar excess of 7-mer) was “inhibited the binding”.
In the case of “MUC1/CD: His-tagged fusion protein of the MUC1 cytoplasmic domain, used as bacterial extract”, the “Binding of his-tagged MUC1/CD to PDZ domain” value [9] is reported as “Binding was observed”, the “Binding of his-tagged MUC1/CD to PDZ domain” value [4, 10] is reported as “Binding was observed” and the “Binding of his-tagged MUC1/CD to PDZ domain” value [5, 10] is reported as “Binding was observed”. For the same molecule, the “Binding of his-tagged MUC1/CD to PDZ domain” value [6, 10] was “Binding was observed”, the “Binding of his-tagged MUC1/CD to PDZ domain” value [7, 10] was “Binding was observed” and the “Binding of his-tagged MUC1/CD to PDZ domain” value [8, 10] was “Binding was observed”.
